Measured values as given in patent US20040053370A1 (Eli Lilly, published 2004).
Ends that are not written are not given here.

target: GLP-1 receptor; test: cell-based or functional assay

Binder	GLP-1 Receptor Activation
HVEGTFTSDLSSYLEGQAAEEFIAWLVKGRG [Val^8-Leu^16-Glu^26-GLP-1(7-37)OH]	0.23 fold of GLP-1(7-37)OH
HVEGTFTSDVSSYLEEQAAKEFIAWLVKGR-NH2 [Val^8-Glu^22-GLP-1(7-36)NH2]	1 fold of GLP-1(7-37)OH
HVEGTFTSDVSSYLEKQAAKEFIEWLVKGRG [Val^8-Lys^22-Glu^30-GLP-1(7-37)OH]	0.37 fold of GLP-1(7-37)OH
HVEGTFTSDVSSYLEKEAAKEFIAWLVKGRG [Val^8-Lys^22-Glu^23-GLP-1(7-37)OH]	0.35 fold of GLP-1(7-37)OH
HGEGHFTSDVSSYLEGQAAKEFIAWLVKGRG [Gly^8-His^11-GLP-1(7-37)OH]	0.282 fold of GLP-1(7-37)OH
HVEGTFTSDVSSYLEGQAAEEFIAWLVKGRG [Val^8-Glu^26-GLP-1(7-37)OH]	1.5 fold of GLP-1(7-37)OH
HVEGTFTSDVSSYLEGQAAKEFIDWLVKGRG [Val^8-Asp^30-GLP-1(7-37)OH]	0.15 fold of GLP-1(7-37)OH
HVEGTFTSDVSSYLEGQAAKHFIAWLVKGRG [Val^8-His^27-GLP-1(7-37)OH]	0.37 fold of GLP-1(7-37)OH
HVEGTFTSDVSSYLEGQAAKEFISWLVKGRG [Val^8-Ser^30-GLP-1(7-37)OH]	0.19 fold of GLP-1(7-37)OH
HVEGTFTSDESSYLEGQAAKEFIAWLVKGRG [Val^8-Glu^16-GLP-1(7-37)OH]	0.047 fold of GLP-1(7-37)OH
HVEGTFTSDVSSYLEDQAAKEFIAWLVKGRG [Val^8-Asp^22-GLP-1(7-37)OH]	0.4 fold of GLP-1(7-37)OH
HVEGTFTSDVSSYLEGQAAHEFIAWLVKGRG [Val^8-His^26-GLP-1(7-37)OH]	1.6 fold of GLP-1(7-37)OH
HVEGTFTSDVSSYLEGQHAKEFIAWLVKGRG [Val^8-His^24-GLP-1(7-37)OH]	0.007 fold of GLP-1(7-37)OH
HVEGTFTSDVSSYLEGQKAKEFIAWLVKGRG [Val^8-Lys^24-GLP-1(7-37)OH]	0.02 fold of GLP-1(7-37)OH
HVEGTFTSDVSSYLEHQAAKEFIAWLVKGRG [Val^8-His^22-GLP-1(7-37)OH]	0.14 fold of GLP-1(7-37)OH
HVEGAFTSDVSSYLEGQAAKEFIAWLVKGRG [Val^8-Ala^11-GLP-1(7-37)OH]	0.021 fold of GLP-1(7-37)OH
HVEGTFTSDVSSYLEGQAAKEFIAWLVKGEG [Val^8-Glu^36-GLP-1(7-37)OH]	0.11 fold of GLP-1(7-37)OH
HVEGTFTSDVSSYLEGQAAKEFIAWLAKGRG [Val^8-Ala^33-GLP-1(7-37)OH]	0.1 fold of GLP-1(7-37)OH
HVEGTFTSDVSSYLEAQAAKEFIAWLVKGRG [Val^8-Ala^22-GLP-1(7-37)OH]	0.56 fold of GLP-1(7-37)OH
HVEGTFTSDVSSYLEGQAAKEFIAWLVKPRG [Val^8-Pro^35-GLP-1(7-37)OH]	0.094 fold of GLP-1(7-37)OH

Binder	GLP-1 Receptor Activation
HVEGTFTSDVSSYLEGQAAKEFIAWLVKGHG [Val^8-His^36-GLP-1(7-37)OH]	0.22 fold of GLP-1(7-37)OH
HVEGTFTSDVSSYLEGQAAKEFIAWLVKHRG [Val^8-His^35-GLP-1(7-37)OH]	0.41 fold of GLP-1(7-37)OH
HVEGTFTSDVSSYLEKQAAKEFIAWLVKGRG [Val^8-Lys^22-GLP-1(7-37)OH]	0.58 fold of GLP-1(7-37)OH
HVEGTFTSDVSSYLEGQAAKEFIAWLEKGRG [Val^8-Glu^33-GLP-1(7-37)OH]	0.039 fold of GLP-1(7-37)OH
HVEGTFTSDASSYLEGQAAKEFIAWLVKGRG [Val^8-Ala^16-GLP-1(7-37)OH]	0.112 fold of GLP-1(7-37)OH
HVEGTFTSDVSSYLESQAAKEFIAWLVKGRG [Val^8-Ser^22-GLP-1(7-37)OH]	0.5 fold of GLP-1(7-37)OH
HVEGKFTSDVSSYLEGQAAKEFIAWLVKGRG [Val^8-Lys^11-GLP-1(7-37)OH]	0.001 fold of GLP-1(7-37)OH
HVEGTFTSDVSSYKEGQAAKEFIAWLVKGRG [Val^8-Lys^20-GLP-1(7-37)OH]	0.33 fold of GLP-1(7-37)OH
HGEGTFTSDVSSYLEGQAAKEFIEWLVKGRG [Gly^8-Glu^30-GLP-1(7-37)OH]	0.29 fold of GLP-1(7-37)OH
HVEGTFTSDVSSYLEEQAAKEFIAWLVKGRG [Val^8-Glu^22-GLP-1(7-37)OH]	1.29 fold of GLP-1(7-37)OH
HVEGTFTSDVSSYLEGKAAKEFIAWLVKGRG [Val^8-Lys^23-GLP-1(7-37)OH]	0.18 fold of GLP-1(7-37)OH
HVEGTFTSDVSSYLEGQAAKEFIAWLVKGRH [Val^8-His^37-GLP-1(7-37)OH]	0.33 fold of GLP-1(7-37)OH
HVEGTFTSDVSSYLEPQAAKEFIAWLVKGRG [Val^8-Pro^22-GLP-1(7-37)OH]	0.01 fold of GLP-1(7-37)OH
HVEGTFTSDVSSYLEGQAAKEFIAWLVKERG [Val^8-Glu^35-GLP-1(7-37)OH]	0.15 fold of GLP-1(7-37)OH
HVEGTFTSDVSSYLEGQAAKEFIAWLVEGRG [Val^8-Glu^34-GLP-1(7-37)OH]	0.17 fold of GLP-1(7-37)OH
HVEGTFTSDVSSYLEGQAAKEFIHWLVKGRG [Val^8-His^30-GLP-1(7-37)OH]	0.19 fold of GLP-1(7-37)OH
HVEGTFTSDVSSYLEGQAAKEFIEWLVKGRG [Val^8-Glu^30-GLP-1(7-37)OH]	0.29 fold of GLP-1(7-37)OH
HAEGTFTSDVSSYLEQQAAKEFIAWLVKGRG [Gln^22-GLP-1(7-37)OH]	0.42 fold of GLP-1(7-37)OH
HVEGTFTSDVSSYLEGQAAKEFIAWLGKGRG [Val^8-Gly^33-GLP-1(7-37)OH]	0.01 fold of GLP-1(7-37)OH
HVEGTFTSDVSSYLEKQAAKEFIAWLVKGR-NH2 [Val^8-Lys^22-GLP-1(7-36)NH2]	0.53 fold of GLP-1(7-37)OH
